Experimental data as given in patent US12416034B2, “Recombinant production of steviol glycosides” (EVOLVA SA, priority 2011, dated 2025).

Legend:
EUGT11 = test: Inhibition studies of RebD production; type: biochemical, Oryza sativa; details: Steviva 500 μg/ml, UDP 500 μM; around 30 μM without any addition
Experimental: Experiments were conducted to determine if factors such as sucrose, fructose, UDP, product (RebD) and impurities in the less pure Stevia extracts raw materials inhibited the extent of the conversion of steviol glycoside substrates to RebD. In a standard reaction mixture, excess of the potential inhibitors (sucrose, fructose, UDP, RebD, or a commercial blend of steviol glycosides (Steviva, Steviva Brands, Inc., Portland, OR)) were added. Following incubation, RebD-production was quantified. […] The RebD that was produced was less than 7 μM. This inhibition can be alleviated in the in vivo or in vitro reactions for RebD production, by including an UDP recycling system to UDP-glucose, either by yeast or by an added SUS (sucrose synthase enzyme) in conjunction with sucrose.

[1] = Codon optimized UGT cell lysate assay, 13-SMG as substrate; type: biochemical; details: 0.25 mM 13-SMG, 24 hours, 30° C.
Experimental: (§1) The wild-type, DNA 2.0, and GeneArt sequences were assayed for in vitro activity to compare reactivity on substrates in the steviol glycosides pathway. UGTs were inserted in high copy (2p) vectors and expressed from a strong constitutive promoter (GPD1) (vectors P423-GPD, P424-GPD, P425-GPD, and P426-GPD). The plasmids were transformed individually into the universal Watchmaker strain, EFSC301 (described in Example 3 of WO2011/153378) and assays were carried out using cell lysates prepared from equal amount of cells (8 OD units). For the enzymatic reactions, 6 μL of each cell lysate were incubated in a 30 μL reaction with 0.25 mM steviol (final concentration) to test UGT74G1 and UGT85C2 clones, and with 0.25 mM 13-SMG (13SMG) (final concentration) to test 76G1 and 91D2e UGTs. Assays were carried out for 24 hours at 30° C. Prior to LC-MS analysis, one volume of 100% DMSO was added to each reaction, samples were centrifuged at 16000 g, and the supernatants analysed.

[2] = Screening by LC-MS of E. coli lysates, rebaudioside A as substrate; type: biochemical; details: RebA substrate
Experimental: (§2) To analyze the approximately 1600 mutant clones of UGT91D2e, the E. coli transformants were grown overnight at 30° C. in 1 ml of NZCYM containing ampicillin (100 mg/1) and chloramphenicol (33 mg/1), in 96-well format. The next day, 150 μl of each culture was inoculated into 3 ml NZCYM containing ampicillin (100 mg/1), chloramphenicol (33 mg/1), arabinose 3 mM, IPTG 0.1 mM and ethanol 2% v/v, in 24-well format, and incubated at 20° C. and 200 rpm for ˜20 h. The following day, cells were spun down and pellets were resuspended in 100 μl of lysis buffer containing 10 mM Tris-HCl pH 8, 5 mM MgCl2, 1 mM CaCl2) and complete mini protease inhibitor EDTA-free (3 tablets/100 ml) (Hoffmann-La Roche, Basel, Switzerland) and frozen −80° C. for at least 15 minutes to promote cell lysis. […] In each case, the resulting compounds, stevioside or rebaudioside D (rebD), were measured by LC-MS. Results were analyzed in comparison with the stevioside or rebD produced by the lysates expressing the corresponding controls (91D2e, 91D2e-b, EUGT11 and the empty plasmid). […]
(§3) Half of the 1600 clones and the corresponding controls were assayed for their capacity to glycosylate rubusoside and rebaudiosideA. Stevioside and RebD were quantified by LC-MS. […]

[3] = In vitro transcribed and translated UGTs incubated with RebA and UDP-glucose, LC-MS; type: biochemical; details: LC-MS chromatograms, FIG. 4
Experimental: In vitro transcription and translation of these genes was performed, and the resulting UGTs incubated with RebA and UDP-glucose. Following incubation, the reactions were analyzed by LC-MS. […] See LC-MS chromatograms in FIG. 4. As shown in the left panel of FIG. 4, UGT91D2e produced a trace amount of RebD when RebA was used as the feedstock.
(§4) EUGT11 was produced by in vitro transcription and translation, and incubated with various substrates in the RebD pathway. Similar experiments were carried out using in vitro transcribed and translated UGT91D2e. […] Compounds 1-3 were identified solely by mass and expected retention time. The numbers shown in FIG. 3 are the average peak height of the indicated steviol glycoside obtained from a LC-MS chromatogram, and, although not quantitative, can be used to compare the activity of the two enzymes. […] Both enzymes were able to convert steviol 19-O-monoglucoside (SMG) to compound 1, with EUGT11 being about ten times more efficient than UGT91D2e at converting 19-SMG to compound 1.
Both enzymes were able to convert RebA to RebD. However, EUGT11 was approximately 30 times better at converting RebA to RebD. Overall, it appears that EUGT11 produces more product than UGT91D2e in all reactions (with similar time, concentrations, temperature, and purity of enzyme) except the conversion of rubusoside to stevioside.

[4] = Screening by LC-MS of E. coli lysates, rubusoside as substrate; type: biochemical
Experimental: as §2, §3

[5] = In vitro transcribed and translated UGTs incubated with rubusoside, LC-MS; type: biochemical
Experimental: as §4
The left panel of FIG. 5 contains LC-MS chromatograms of the conversion of rubusoside to stevioside. The right panel of FIG. 5 contains chromatograms of the conversion of rubusoside to stevioside, to compound 2, and to compound 3 (RebE). Conversion of rubusoside to compound 3 requires two consecutive 1, 2-O-glycosylations at the 19- and 13-positions of steviol.

[6] = In vitro transcribed and translated UGTs incubated with steviol, LC-MS; type: biochemical
Experimental: as §4

[7] = Denaturation temperature by differential scanning calorimetry (DSC); type: physicochemical; details: 6HIS-purified enzymes, 91D2e-b GST-purified
Experimental: To assess the thermal stability of EUGT11 and to compare it with the other UGTs in the steviol glycosylation pathway, denaturation temperatures of the proteins were determined using differential scanning calorimetry (DSC). Use of DSC thermograms to estimate denaturation temperatures, TD, is described, for example, by E. Freire in Methods in Molecular Biology 1995, Vol. 40 191-218. DSC was performed (using 6HIS-purified EUGT11, yielding an apparent TD of 39° C.; while when GST-purified 91D2e-b was used, the measured TD was 79° C. For reference, the measured TD when using 6HIS-purified UGT74G1, UGT76G1 and UGT85C2 was 86° C. in all cases. One of skill in the art will recognize that enzyme immobilization or addition of thermal protectants can be added to the reactions to improve stability of the protein. Non-limiting examples of thermal protectants include trehalose, glycerol, ammonium sulphate, betaine, trimethylamine oxide, and proteins.

[8] = Codon optimized UGT cell lysate assay, steviol as substrate; type: biochemical; details: 0.25 mM steviol, 24 hours, 30° C.
Experimental: as §1

[9] = tested on: S. cerevisiae strain BY4741; test: Steviol-feeding experiment of S. cerevisiae strain BY4741; type: cell-based; details: co-expressed with wild type UGT74G1, steviol feeding
Experimental: Further experiments were conducted to determine if the codon-optimized UGT85C2 could reduce 19-SMG accumulation and increase rubusoside and higher glycosylated steviol glycosides production. The production of 19-SMG and rubusoside were analysed in a steviol-feeding experiment of S. cerevisiae strain BY4741 expressing the wild type UGT74G1 as well as the codon-optimized UGT85C2 from high copy (2p) vectors under strong constitutive promoter (GPD1) (vectors P426-GPD and P423-GPD, respectively). Whole culture samples (without cell removal) were taken and boiled in an equal volume of DMSO for total glycosides levels. Intracellular concentrations reported were obtained by pelleting cells, and resuspending in 50% DMSO to the volume of the original culture sample taken, followed by boiling. The “total” glycosides level and the normalized intracellular level then were measured using LC-MS. Using wild type UGT74G1 and wild type UGT85C2, approximately 13.5 μM rubusoside was produced in total with a maximum normalized intracellular concentration of about 7 μM. In contrast, when wild type UGT74G1 and codon-optimized UGT85C2 were used, a maximum of 26 μM rubusoside was produced, or approximately double of what was produced using the wild type UGT85C2. Additionally, the maximum normalized intracellular concentration of rubusoside was 13 μM, again an approximate doubling of what was produced using wild type UGT85C2. […] Consequently, about 10 μM less total 19-SMG was measured for the codon-optimized UGT85C2.

Molecule: O=c1ccn([C@@H]2O[C@H](COP(=O)(O)OP(=O)(O)O)[C@@H](O)[C@H]2O)c(=O)[nH]1 [UDP]
- RebD production in presence of potential inhibitor (EUGT11): less than 7 μM

B1: UGT91D2e: UGT91D2e polypeptide from Stevia rebaudiana, SEQ ID NO:5 (protein, listed as Stevia rebaudiana)
chain: MATSDSIVDDRKQLHVATFPWLAFGHILPYLQLSKLIAEKGHKVSFLSTTRNIQRLSSHISPLINVVQLTLPRVQELPEDAEATTDVHPEDIPYLKKASDGLQPEVTRFLEQHSPDWIIYDYTHYWLPSIAASLGISRAHFSVTTPWAIAYMGPSADAMINGSDGRTTVEDLTTPPKWFPFPTKVCWRKHDLARLVPYKAPGISDGYRMGLVLKGSDCLLSKCYHEFGTQWLPLLETLHQVPVVPVGLLPPEIPGDEKDETWVSIKKWLDGKQKGSVVYVALGSEVLVSQTEVVELALGLELSGLPFVWAYRKPKGPAKSDSVELPDGFVERTRDRGLVWTSWAPQLRILSHESVCGFLTHCGSGSIVEGLMFGHPLIMLPIFGDQPLNARLLEDKQVGIEIPRNEEDGCLTKESVARSLRSVVVEKEGEIYKANARELSKIYNDTKVEKEYVSQFVDYLEKNARAVAIDHES
- activity of GeneArt lysate as a percentage of the wild-type enzyme [1]: 130%
- RebD formed by lysates [2]: ~1 µM
- amount of RebD produced when RebA was used as the feedstock [3]: trace amount
- stevioside formed by lysates [4]: approximately 0.5 μM
- amount of compound 3 (RebE) produced from rubusoside [5]: trace amount
- use of steviol as a substrate [6]: not able to use steviol as a substrate

B2: UGT76G1: S. rebaudiana UGT, SEQ ID NO:7 (protein, listed as Stevia rebaudiana)
chain: MENKTETTVRRRRRIILFPVPFQGHINPILQLANVLYSKGFSITIFHTNFNKPKTSNYPHFTFRFILDNDPQDERISNLPTHGPLAGMRIPIINEHGADELRRELELLMLASEEDEEVSCLITDALWYFAQSVADSLNLRRLVLMTSSLFNFHAHVSLPQFDELGYLDPDDKTRLEEQASGFPMLKVKDIKSAYSNWQILKEILGKMIKQTKASSGVIWNSFKELEESELETVIREIPAPSFLIPLPKHLTASSSSLLDHDRTVFQWLDQQPPSSVLYVSFGSTSEVDEKDFLEIARGLVDSKQSFLWVVRPGFVKGSTWVEPLPDGFLGERGRIVKWVPQQEVLAHGAIGAFWTHSGWNSTLESVCEGVPMIFSDFGLDQPLNARYMSDVLKVGVYLENGWERGEIANAIRRVMVDEEGEYIRQNARVLKQKADVSLMKGGSSYESLESLVSYISSL
- activity of GeneArt lysate as a percentage of the wild-type enzyme [1]: 170%
- denaturation temperature TD [7]: 86 °C

B3: UGT85C2: S. rebaudiana UGT, SEQ ID NO:3 (protein, listed as Stevia rebaudiana)
chain: MDAMATTEKKPHVIFIPFPAQSHIKAMLKLAQLLHHKGLQITFVNTDFIHNQFLESSGPHCLDGAPGFRFETIPDGVSHSPEASIPIRESLLRSIETNFLDRFIDLVTKLPDPPTCIISDGFLSVFTIDAAKKLGIPVMMYWTLAACGFMGFYHIHSLIEKGFAPLKDASYLTNGYLDTVIDWVPGMEGIRLKDFPLDWSTDLNDKVLMFTTEAPQRSHKVSHHIFHTFDELEPSIIKTLSLRYNHIYTIGPLQLLLDQIPEEKKQTGITSLHGYSLVKEEPECFQWLQSKEPNSVVYVNFGSTTVMSLEDMTEFGWGLANSNHYFLWIIRSNLVIGENAVLPPELEEHIKKRGFIASWCSQEKVLKHPSVGGFLTHCGWGSTIESLSAGVPMICWPYSWDQLTNCRYICKEWEVGLEMGTKVKRDEVKRLVQELMGEGGHKMRNKAKDWKEKARIAIAPNGSSSLNIDKMVKEITVLARN
- activity of GeneArt lysate as a percentage of the wild-type enzyme [8]: 340%
- maximum intracellular concentration of 19-SMG [9]: 35 µM
- maximum normalized intracellular concentration of rubusoside [9]: about 7 μM
- rubusoside produced in total [9]: approximately 13.5 μM
- denaturation temperature TD [7]: 86 °C
